Data taken from article PMC3787391.

Biological target: ligated complex of zebrafish PlexinC1_(cyto) and human Rap1B with the 24-residue linker and the LPETGG sortase recognition motif (human | zebrafish) (UniProt P61224)
Experiment: AUC; sedimentation velocity, with 2 mM AlFx; 0.5, 4, 8 and 20 μM; 10 mM Tris pH 8, 50 mM NaCl, 2 mM TCEP, 2 mM MgCl2; 20°C, 42,000 rpm; c(s) analysis; monomer to dimer

In the case of “ligated complex of zebrafish PlexinC1_(cyto) and human Rap1B with the 24-residue linker and the LPETGG sortase recognition motif (from UniProt P61224 2-166; A0A8M3ARP5 552-1147)”, the stoichiometry N is reported as 2.
